Reference: IntAct's records for PubMed 22493500

B1: Colicin-A (Citrobacter freundii), P04480 (parent)
chain: MPGFNYGGKGDGTGWSSERGSGPEPGGGSHGNSGGHDRGDSSNVGNESVTVMKPGDSYNTPWGKVIINAAGQPTMNGTVMTADNSSMVPYGRGFTRVLNSLVNNPVSPAGQNGGKSPVQTAVENYLMVQSGNLPPGYWLSNGKVMTEVREERTSGGGGKNGNERTWTVKVPREVPQLTASYNEGMRIRQEAADRARAEANARALAEEEARAIASGKSKAEFDAGKRVEAAQAAINTAQLNVNNLSGAVSAANQVITQKQAEMTPLKNELAAANQRVQETLKFINDPIRSRIHFNMRSGLIRAQHNVDTKQNEINAAVANRDALNSQLSQANNILQNARNEKSAADAALSAATAQRLQAEAALRAAAEAAEKARQRQAEEAERQRQAMEVAEKAKDERELLEKTSELIAGMGDKIGEHLGDKYKAIAKDIADNIKNFQGKTIRSFDDAMASLNKITANPAMKINKADRDALVNAWKHVDAQDMANKLGNLSKAFKVADVVMKVEKVREKSIEGYETGNWGPLMLEVESWVLSGIASSVALGIFSATLGAYALSLGVPAIAVGIAGILLAAVVGALIDDKFADALNNEIIRPAH
partner: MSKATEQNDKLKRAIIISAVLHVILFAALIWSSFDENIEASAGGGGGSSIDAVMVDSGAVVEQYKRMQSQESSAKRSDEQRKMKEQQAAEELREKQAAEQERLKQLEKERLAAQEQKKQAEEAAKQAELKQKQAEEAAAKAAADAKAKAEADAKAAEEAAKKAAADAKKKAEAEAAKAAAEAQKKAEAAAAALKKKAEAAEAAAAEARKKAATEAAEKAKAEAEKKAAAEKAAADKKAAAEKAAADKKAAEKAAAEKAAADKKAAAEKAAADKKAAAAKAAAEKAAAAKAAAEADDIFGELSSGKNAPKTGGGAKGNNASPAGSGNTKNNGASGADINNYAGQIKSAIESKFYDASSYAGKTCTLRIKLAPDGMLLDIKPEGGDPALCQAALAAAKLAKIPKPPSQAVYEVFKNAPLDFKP

Variants of: B1
Settings: with tola_ecoli tolA

Q: For MPGFNYGGKGDGTGWSSERGSGPEPGGGSHGNSGGHDRGDSSNVGNESVTVMKPGDSANTPWGKVIINAAGQPTMNGTVMTADNSSMVPYGRGFTRVLNSLVNNPVSPAGQNGGKSPVQTAVENYLMVQSGNLPPGYWLSNGKVMTEVREERTSGGGGKNGNERTWTVKVPREVPQLTASYNEGMRIRQEAADRARAEANARALAEEEARAIASGKSKAEFDAGKRVEAAQAAINTAQLNVNNLSGAVSAANQVITQKQAEMTPLKNELAAANQRVQETLKFINDPIRSRIHFNMRSGLIRAQHNVDTKQNEINAAVANRDALNSQLSQANNILQNARNEKSAADAALSAATAQRLQAEAALRAAAEAAEKARQRQAEEAERQRQAMEVAEKAKDERELLEKTSELIAGMGDKIGEHLGDKYKAIAKDIADNIKNFQGKTIRSFDDAMASLNKITANPAMKINKADRDALVNAWKHVDAQDMANKLGNLSKAFKVADVVMKVEKVREKSIEGYETGNWGPLMLEVESWVLSGIASSVALGIFSATLGAYALSLGVPAIAVGIAGILLAAVVGALIDDKFADALNNEIIRPAH [Y58A], which “effect of a mutation on the interaction” value is on record?
A: disrupting interaction
